Laboratory results: patent publication US20120252756A1, “Pharmaceutical Compositions and Methods for Treating, Controlling, Ameliorating, or Reversing Conditions of the Eye” (priority 2010, published 2012)

Experiments:
[1] = tested on: Riken human corneal epithelial cell line (RT-HCEpiC); assay: Monolayer scratch assay (corneal re-epithelization); type: cell-based; conditions: 10 ng/mL; 16 hours after wounding
Procedure: A single horizontal scratch was made to the HCEpiC monolayer. Cells were then incubated with PEG 3350 or HPMC 2910 in basal culture medium. Wound healing was calculated as the difference in the gap width between baseline measurements and after 16-hour incubation and is expressed as percentage gap closure. Bars represent the difference in the gap width between baseline measurements and after 16-hour incubation with treatment groups (n=3); lines on bars represent the standard error of the means. Raw data were analyzed with a one-way ANOVA followed by the Dunnett's Method test. * denotes statistical significance versus vehicle control; p<0.05.
We have developed an in vitro wound healing model using transformed human corneal epithelial cells insulted with a scratch to the monolayer and monitored for growth into the resulting cell-free gap. […]
Cells were examined and photographed after scratch and after 16 hours incubation with treatment to monitor closure of the cell-free gap using a light microscope. The percent closure was determined using the following equation. […]
Comparisons were made between treatment groups and the vehicle controls to determine the effect of the treatment on re-epithelization. […] All data was analyzed utilizing the statistical analysis software JMP (SAS Institute, Cary, N.C.).

EGFR = assay: Western blot of EGFR phosphorylation in RT-HCEpiC; type: cell-based, human; conditions: 10 ng/mL for 10 minutes
Procedure: (§1) Human corneal epithelial cells (HCEpiC) were treated with 10% PEG-3350 in serum-free media over the course of 16 hours in an attempt to understand the molecular mechanisms behind the observed positive effect on corneal re-epithelization. Cell lysates were collected and assessed for protein activation by western blot using antibodies targeting key phosphorylation sites.
(§2) FIG. 11 is a graphical representation of peak phosphorylation time points for pAkt, pERK, and pEGFR. […] Cell lysates were collected and assessed for protein activation by western blot using antibodies targeting key phosphorylation sites. […] Ratio of phosphorylated protein to total, non-phosphorylated was quantified by densitometry.
(§3) RT-HCEpiC cell suspensions (2.5×10^5 cells/ml) were prepared in complete medium with 10% Fetal Bovine Serum (“FBS”) and added to each well of a 6-well plate, 2.5 mL suspension per well. […] Cell lysates were assayed for protein concentration and evaluated for Akt, ERK, EGFR, and PI3K activation by Western blot.
(§4) Culture medium was aspirated from each well and cells were washed with cold, non-sterile PBS twice. […] Cell lysates were assayed for protein concentration and analyzed by western blot. […]
(§5) Western Blot: Analysis of Western blot band density in captured and stored digital images was done using the Quantity One software on the VersaDod MP 4000. Density of bands was quantified. […]

Akt = assay: Western blot of Akt phosphorylation in RT-HCEpiC; type: cell-based, human; conditions: 10 ng/mL for 10 minutes
Procedure: as §1, §2, §3, §4, §5

ERK = assay: Western blot of ERK phosphorylation in RT-HCEpiC; type: cell-based, human; conditions: 10 ng/mL for 10 minutes
Procedure: as §1, §2, §3, §4, §5

PI3K = assay: Western blot of PI3K phosphorylation in RT-HCEpiC; type: cell-based, human; conditions: 10 ng/mL for 10 minutes
Procedure: as §1
RT-HCEpiC cell suspensions (2.5×10^5 cells/ml) were prepared in complete medium with 10% Fetal Bovine Serum (“FBS”) and added to each well of a 6-well plate, 2.5 mL suspension per well. When cells reached confluence, they were serum starved overnight in basal DMEM/F12. Treatments were delivered in basal medium; treatments include control, 10 ng/mL HB-EGF (Heparin-bi-binding EGF-like growth factor) for 10 minutes; or 10% PEG-3350 for 10, 15, 20, 30 minutes, 1, 2, 4, 6, or 16 hours. Cell lysates were assayed for protein concentration and evaluated for Akt, ERK, EGFR, and PI3K activation by Western blot.
as §4, §5

B1: Heparin-binding EGF-like growth factor (protein, UniProt Q99075 63-148, looked up)
Heparin-binding EGF-like …: DLQEADLDLLRVTLSSKPQALATPNKEEHGKRKKKGKGLGKKRDPCLRKYKDFCIHGECKYVKELRAPSCICHPGYHGERCHGLSL
notes: growth factor used as positive assay control
corneal re-epithelization (percent gap closure) versus vehicle control [1]: significantly increased
phosphorylation of EGFR (EGFR): substantially increased
phosphorylation of Akt (Akt): substantially increased
phosphorylation of ERK (ERK): substantially increased
pPI3K (PI3K): no effect
